From publication PMC7062162

Target: HA 2NΔ peptide-DR1 complex (human | influenza A virus) (UniProt P03437)

soluble recombinant HLA-DM (DMA*0101/DMB*0101) (complex)
kcat, fold change against the full HA peptide complex: 5 fold
